According to publication PMC3117075 (2011):
One block for each binder: values may come before it. Non-standard residues stand in square brackets, D forms with d. pT = C[C@@H](OP(=O)(O)O)[C@H](N)C(=O)O; pS = N[C@@H](COP(=O)(O)O)C(=O)O

Tests used:
[1] = molecular target: T1, Ac-pSPSF-CONH2 (peptide 8) (Homo sapiens, UniProt Q9BX63, SMILES CC(=O)N[C@@H](COP(=O)(O)O)C(=O)N1CCC[C@H]1C(=O)N[C@@H](CO)C(=O)N[C@@H](Cc1ccccc1)C(N)=O); experiment: fluorescence polarization competition
T1 chain: Ac-[pS]PSF-NH2

[2] = molecular target: T2, Ac-pSPVF-CONH2 (peptide 7) (Homo sapiens, UniProt Q9BX63, SMILES CC(=O)N[C@@H](COP(=O)(O)O)C(=O)N1CCC[C@H]1C(=O)N[C@H](C(=O)N[C@@H](Cc1ccccc1)C(N)=O)C(C)C); experiment: fluorescence polarization competition
T2 chain: Ac-[pS]PVF-NH2

[3] = molecular target: T3, Ac-pSPTF-COOH (peptide 18) (Homo sapiens, UniProt Q9BX63, SMILES CC(=O)N[C@@H](COP(=O)(O)O)C(=O)N1CCC[C@H]1C(=O)N[C@H](C(=O)N[C@@H](Cc1ccccc1)C(=O)O)[C@@H](C)O); experiment: fluorescence polarization competition
T3 chain: Ac-[pS]PTF-OH

[4] = molecular target: T4, Ac-pSPVF-COOH (peptide 19) (Homo sapiens, UniProt Q9BX63, SMILES CC(=O)N[C@@H](COP(=O)(O)O)C(=O)N1CCC[C@H]1C(=O)N[C@H](C(=O)N[C@@H](Cc1ccccc1)C(=O)O)C(C)C); experiment: fluorescence polarization competition
T4 chain: Ac-[pS]PVF-OH

[5] = molecular target: T5, Ac-pSPAF-CONH2 (peptide 6) (Homo sapiens, UniProt Q9BX63, SMILES CC(=O)N[C@@H](COP(=O)(O)O)C(=O)N1CCC[C@H]1C(=O)N[C@@H](C)C(=O)N[C@@H](Cc1ccccc1)C(N)=O); experiment: fluorescence polarization competition
T5 chain: Ac-[pS]PAF-NH2

[6] = molecular target: T6, Ac-pSPPF-CONH2 (peptide 15) (Homo sapiens, UniProt Q9BX63, SMILES CC(=O)N[C@@H](COP(=O)(O)O)C(=O)N1CCC[C@H]1C(=O)N1CCC[C@H]1C(=O)N[C@@H](Cc1ccccc1)C(N)=O); experiment: fluorescence polarization competition
T6 chain: Ac-[pS]PPF-NH2

[7] = molecular target: T3, Ac-pSPTF-COOH (peptide 18); experiment: ITC
[8] = molecular target: T7, Ac-EPTF-CONH2 (peptide 2) (Homo sapiens, UniProt Q9BX63); experiment: fluorescence polarization competition
T7 chain: Ac-EPTF-NH2

[9] = molecular target: T8, Ac-pTPTF-CONH2 (peptide 4) (Homo sapiens, UniProt Q9BX63, SMILES CC(=O)N[C@H](C(=O)N1CCC[C@H]1C(=O)N[C@H](C(=O)N[C@@H](Cc1ccccc1)C(N)=O)[C@@H](C)O)[C@@H](C)OP(=O)(O)O); experiment: fluorescence polarization competition
T8 chain: Ac-[pT]PTF-NH2

[10] = molecular target: T9, Ac-pSATF-CONH2 (peptide 5) (Homo sapiens, UniProt Q9BX63, SMILES CC(=O)N[C@@H](COP(=O)(O)O)C(=O)N[C@@H](C)C(=O)N[C@H](C(=O)N[C@@H](Cc1ccccc1)C(N)=O)[C@@H](C)O); experiment: fluorescence polarization competition
T9 chain: Ac-[pS]ATF-NH2

[11] = molecular target: T10, Ac-pSPTF-CONH2 (peptide 1) (Homo sapiens, UniProt Q9BX63, SMILES CC(=O)N[C@@H](COP(=O)(O)O)C(=O)N1CCC[C@H]1C(=O)N[C@H](C(=O)N[C@@H](Cc1ccccc1)C(N)=O)[C@@H](C)O); experiment: fluorescence polarization competition
T10 chain: Ac-[pS]PTF-NH2

IC50 [1]: 30.1 µM
IC50 [2]: 3.2 µM
IC50 [3]: 1 µM
IC50 [4]: 1.6 µM
IC50 [5]: 35 µM
IC50 [6]: > 250 µM
Kd [7]: 0.19 µM
B1: BRCA1 BRCT (protein)
chain: STERVNKRMSMVVSGLTPEEFMLVYKFARKHHITLTNLITEETTHVVMKTDAEFVCERTLKYFLGIAGGKWVVSYFWVTQSIKERKMLNEHDFEVRGDVVNGRNHQGPKRARESQDRKIFRGLEICCYGPFTNMPTDQLEWMVQLCGASVVKELSSFTLGTGVHPIVVVQPDAWTEDNGFHAIGQMCEAPVVTREWVLDSVALYQCQELDTYLI

IC50 [8]: > 250 µM
IC50 [9]: > 250 µM
IC50 [10]: 15 µM
IC50 [11]: 4.6 µM
B2: BRCA1 BRCT (protein)
chain: VNKRMSMVVSGLTPEEFMLVYKFARKHHITLTNLITEETTHVVMKTDAEFVCERTLKYFLGIAGGKWVVSYFWVTQSIKERKMLNEHDFEVRGDVVNGRNHQGPKRARESQDRKIFRGLEICCYGPFTNMPTDQLEWMVQLCGASVVKELSSFTLGTGVHPIVVVQPDAWTEDNGFHAIGQMCEAPVVTREWVLDSVALYQCQELDTYLIPQIP
